Source: US20080167229A1 (Dana-Farber, published 2008)

Tests used:
[1] = target: T1, endogenous USP1, full length (HeLa and 293T cells) (human, UniProt O94782 1-785); assay: anti-Flag immunoprecipitation from transiently transfected 293T cells, anti-USP1 immunoblot
T1 construct: Full length endogenous protein detected in immunoprecipitates; also called Ubiquitin Specific Protease 1
T1 sequence: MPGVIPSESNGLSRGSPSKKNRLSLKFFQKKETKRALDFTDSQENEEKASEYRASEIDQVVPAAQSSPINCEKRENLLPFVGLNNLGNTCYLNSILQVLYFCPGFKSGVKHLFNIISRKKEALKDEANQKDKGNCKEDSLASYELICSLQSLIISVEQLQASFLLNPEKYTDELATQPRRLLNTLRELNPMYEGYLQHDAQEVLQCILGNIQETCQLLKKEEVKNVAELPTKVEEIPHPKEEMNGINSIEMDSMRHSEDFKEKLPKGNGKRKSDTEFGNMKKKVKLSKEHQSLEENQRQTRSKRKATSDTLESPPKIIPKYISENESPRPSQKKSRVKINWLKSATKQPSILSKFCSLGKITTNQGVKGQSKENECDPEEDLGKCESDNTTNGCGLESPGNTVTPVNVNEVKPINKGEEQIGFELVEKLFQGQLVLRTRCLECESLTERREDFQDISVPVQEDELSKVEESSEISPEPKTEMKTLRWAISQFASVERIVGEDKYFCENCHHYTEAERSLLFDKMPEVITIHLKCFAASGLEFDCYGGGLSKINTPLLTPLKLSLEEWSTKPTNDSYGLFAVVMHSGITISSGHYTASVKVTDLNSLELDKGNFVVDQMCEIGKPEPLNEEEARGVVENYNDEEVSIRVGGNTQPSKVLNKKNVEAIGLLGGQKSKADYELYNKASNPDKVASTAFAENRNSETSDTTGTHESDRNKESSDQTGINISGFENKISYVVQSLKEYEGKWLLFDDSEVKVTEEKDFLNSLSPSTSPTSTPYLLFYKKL
Description: (§1) The Flag-tagged proteins were immunoprecipitated from cell lysates using anti-Flag antibodies. The immunoprecipitates were analyzed using the indicated antibodies. […] The concentrations of all proteins were 10 nM.

[2] = target: T2, N-terminal cleavage product of endogenous USP1 (human, UniProt O94782 1-671); assay: as above
T2 construct: the end at 671 is inferred from that; also called N-terminal USP1; N-terminal USP1 fragment
T2 sequence: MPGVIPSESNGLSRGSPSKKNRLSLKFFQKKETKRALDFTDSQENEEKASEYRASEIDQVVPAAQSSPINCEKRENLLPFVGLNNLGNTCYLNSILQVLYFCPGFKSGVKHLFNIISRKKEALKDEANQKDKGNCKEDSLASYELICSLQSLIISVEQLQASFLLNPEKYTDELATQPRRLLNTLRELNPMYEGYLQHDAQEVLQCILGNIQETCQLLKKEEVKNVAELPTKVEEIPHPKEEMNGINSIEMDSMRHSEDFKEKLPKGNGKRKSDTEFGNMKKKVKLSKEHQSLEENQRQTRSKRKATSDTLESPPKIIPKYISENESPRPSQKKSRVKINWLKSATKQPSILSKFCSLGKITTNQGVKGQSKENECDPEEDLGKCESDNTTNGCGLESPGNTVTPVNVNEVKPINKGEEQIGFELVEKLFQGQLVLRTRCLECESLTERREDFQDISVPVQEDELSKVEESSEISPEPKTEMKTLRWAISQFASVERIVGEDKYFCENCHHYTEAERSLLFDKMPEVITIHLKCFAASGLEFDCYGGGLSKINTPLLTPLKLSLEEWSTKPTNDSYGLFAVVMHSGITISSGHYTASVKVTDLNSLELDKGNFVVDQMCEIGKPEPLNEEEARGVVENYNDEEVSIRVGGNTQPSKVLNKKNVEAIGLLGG
Description: as §1

B1: Flag-tagged UAF1-Δ507-546 expressed in 293T cells (other)
chain: MAAHHRQNTAGRRKVQVSYVIRDEVEKYNRNGVNALQLDPALNRLFTAGRDSIIRIWSVNQHKQDPYIASMEHHTDWVNDIVLCCNGKTLISASSDTTVKVWNAHKGFCMSTLRTHKDYVKALAYAKDKELVASAGLDRQIFLWDVNTLTALTASNNTVTTSSLSGNKDSIYSLAMNQLGTIIVSGSTEKVLRVWDPRTCAKLMKLKGHTDNVKALLLNRDGTQCLSGSSDGTIRLWSLGQQRCIATYRVHDEGVWALQVNDAFTHVYSGGRDRKIYCTDLRNPDIRVLICEEKAPVLKMELDRSADPPPAIWVATTKSTVNKWTLKGIHNFRASGDYDNDCTNPITPLCTQPDQVIKGGASIIQCHILNDKRHILTKDTNNNVAYWDVLKACKVEDLGKVDFEDEIKKRFKMVYVPNWFSVDLKTGMLTITLDESDCFAAWVSAKDAGFSSPDGSDPKLNLGGLLLQALLEYWPRTHVNPMDEEENEVNHVNGEQENRVQKGNGYPQWVIDITVDKNMPKFNKIPFYLQPHASSGAKTLKKDRLSASDMLQVRKVMEHVYEKIINLDNESQTTSSSNNEKPGEQEKEEDIAVLAEEKIELLCQDQVLDPNMDLRTVKHFIWKSGGDLTLHYRQKS
notes: Deletion of aa 507-546 as printed; not shown: Flag tag
binding result [1]: no binding
binding result [2]: no binding
